Measurements from patent publication US20050208042A1 (GENETICS INSTITUTE, published 2005).

T1: human B7-1 (CD80) expressed on the cell surface (CHO/hB7-1 cells) (human, UniProt P33681 35-288)
T1 sequence (looked up): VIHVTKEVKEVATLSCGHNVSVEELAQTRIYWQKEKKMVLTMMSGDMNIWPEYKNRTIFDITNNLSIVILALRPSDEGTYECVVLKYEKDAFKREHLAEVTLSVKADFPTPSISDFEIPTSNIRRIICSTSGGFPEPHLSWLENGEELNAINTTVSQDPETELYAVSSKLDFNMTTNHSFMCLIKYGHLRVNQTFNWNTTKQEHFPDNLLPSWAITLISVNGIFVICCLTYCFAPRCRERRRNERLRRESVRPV

T2: human B7-1Ig (recombinant soluble hB7-1Ig) (human, UniProt P33681 35-242)
T2 construct: extracellular domain; Secreted by CHO cells, purified on protein A, immobilized on the BIACORE chip; not shown: hinge-CH2-CH3 domains of human IgG1 heavy chain
T2 sequence (looked up): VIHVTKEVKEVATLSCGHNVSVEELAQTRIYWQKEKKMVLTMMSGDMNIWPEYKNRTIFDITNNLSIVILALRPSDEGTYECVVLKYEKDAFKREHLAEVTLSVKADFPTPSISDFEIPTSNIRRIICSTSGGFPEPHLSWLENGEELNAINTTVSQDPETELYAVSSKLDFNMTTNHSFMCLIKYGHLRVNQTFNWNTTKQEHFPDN

T3: human B7-2 (CD86) expressed on the cell surface (CHO/hB7-2 cells) (human, UniProt P42081 24-329)
T3 construct: whole, on cells; Also used for native B7-2 on human PBL in the MLR row under functional; also called rhB7-2
T3 sequence (looked up): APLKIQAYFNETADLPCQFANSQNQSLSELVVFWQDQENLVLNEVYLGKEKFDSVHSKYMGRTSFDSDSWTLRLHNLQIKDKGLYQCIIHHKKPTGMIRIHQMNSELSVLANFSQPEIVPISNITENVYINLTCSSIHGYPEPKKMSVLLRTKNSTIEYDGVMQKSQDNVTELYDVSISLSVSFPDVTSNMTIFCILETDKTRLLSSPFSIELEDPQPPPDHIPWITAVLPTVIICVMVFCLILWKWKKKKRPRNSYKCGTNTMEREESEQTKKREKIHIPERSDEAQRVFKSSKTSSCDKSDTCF

B1: murine 1F1 monoclonal antibody (murine anti-human B7-1 mAb) (antibody, V domains shown)
VH: EVHLQQSGAELVRPGALVKLSCKPSGFNIKDYYMHWVKQRPEQGLEWIGWIDPENGNTLYDPKFQGKASITADTSSNTAYLQLSSLTSEDTAVYYCAREGLFFAYWGQGTPVTVSA
VL: EIVLTQSPALMAASPGEKVTITCSVSSSISSSNLHWYQQKSETSPKPWIYGTSNLASGVPVRFSGSGSGTSYSLTISSMEAEDAATYYCQQWSSYPLTFGAGTKLELK
notes: Hybridoma mouse antibody with kappa light chain; also called mouse 1F1; murine anti-B7-1
B2: humanized anti-B7-1 mAb (humanized 1F1), isotype not stated in the example (antibody, V domains shown)
VH: EVQLVQSGAEVKKPGASVKVSCKPSGFNIKDYYMHWVRQAPGQGLEWIGWIDPENGNTLYDPKFQGKATITADTSTSTAYMELSSLRSEDTAVYYCAREGLFFAYWGQGTLVTVSS
VL: DIQMTQSPSSLSASVGDRVTITCSVSSSISSSNLHWYQQKPGKAPKPLIYGTSNLASGVPSRFSGSGSGTDYTLTISSLQPEDVATYYCQQWSSYPLTFGQGTKVEIK
notes: Same variable regions as m8; also called hu1F1

Experiments:
[1] = target: T1, human B7-1 (CD80) expressed on the cell …; test: cell-based or functional assay
[2] = target: T2, human B7-1Ig (recombinant soluble …); test: SPR (BIACORE), hB7-1Ig immobilized
Method: (§1) The BIACORE® biosensor (BIACORE®, Uppsalla, Sweden) was used to determine binding kinetics of murine and humanized anti-B7-1 monoclonal antibodies to human B7-1Ig (hB7-1Ig) protein. Human B7-1Ig was immobilized onto the dextran matrix of a BIACORE® sensor chip. Humanized and murine anti-B7-1 mAbs were tested at 200, 100, 50, and 20 nM on the immobilized hB7-1Ig. Each mAb dilution was tested 4 times per run and a total of three separate runs were performed. Anti-human B7-1Ig binding was measured in real time by Surface Plasmon Resonance (SPR) and global analysis was performed using the bivalent binding model in BIA evaluation software (Version 3.1). For each sample, the association (kₐ) dissociation (kd) and equilibrium dissociation constant (KD) were determined.

[3] = target: T2, human B7-1Ig (recombinant soluble …); test: SPR (BIACORE), hB7-1Ig immobilized, bivalent model, mean of three runs
Method: as §1

[4] = target: T1, human B7-1 (CD80) expressed on the cell …; test: competitive binding against 125I-humanized 1F1 on CHO cells expressing rhB7-1
Method: (§2) The affinity of the mouse and humanized 1F1 antibodies for the B7-1 antigen was determined by competitive binding with radio-iodinated humanized 1F1 antibody. Three-fold serial dilutions of unlabeled mouse or humanized 1F1 antibodies were mixed with a fixed amount of radio-iodinated humanized 1F1 antibody (40,000-50,000 cpm per test) in PBS containing 2% fetal calf serum, 0.1% sodium azide. 3×10⁴ CHO cells expressing cell surface rhB7-1 were added subsequently and the mixture (in a total volume of 200 μL) was incubated for 2 hr at 4° C. with gentle shaking. The cell-antibody suspension was then transferred to Sarstedt Micro Tubes (part #72.702) containing 100 μL of 80% dibutyl phthalate-20% olive oil. After centrifugation in a microfuge, the Sarstedt tubes were plunged into dry ice for several minutes. Cell-bound ¹²⁵I was determined by clipping the tips of each tube (containing cell pellets) into scintillation vials and counting in a gamma counter. Bound and free counts were determined and the ratio plotted against the concentrations of the cold competitor antibodies according to the method of Berzofsky and Berkower (J. A. Berzofsky and I. J. Berkower, in Fundamental Immunology, W. E. Paul, Raven Press, New York, pp. 595-644 (1984)).

[5] = target: T3, human B7-2 (CD86) expressed on the cell …; test: 125I direct binding, CHO cells expressing hB7-2 as control for non-specific binding
[6] = target: T1, human B7-1 (CD80) expressed on the cell …; test: competitive binding against 125I-murine anti-B7-1 on CHO/hB7-1 cells; murine anti-B7-1 mAb
Method: (§3) The relative affinities of the murine and humanized anti-B7-1 (1F1) antibodies for the B7-1 antigen were determined by competitive binding assays. Three-fold serial dilutions of the unlabeled murine or humanized anti-B7-1 mAbs were mixed with a fixed amount of radio-labeled murine anti-B7-1 mAb (¹²⁵I-anti-B7-1, 2800 cpm/fmol; 40,000-50,000 cpm/test in PBS containing 2% fetal calf serum). 1×10⁵ CHO/hB7-1 cells expressing hB7-1 on their surface were added subsequently and the mixture (total volume=200 μL) incubated for 2 hrs at 4° C. with gentle shaking. The cell antibody mixture was then transferred to Sarstedt Micro tubes (Part # 72.702) containing 100 μL of 80% dibutyl phthlate-20% olive oil. After centrifugation in a microfuge, the Sarstedt tubes were plunged into dry ice for several minutes. Cell bound ¹²⁵I-labeled mAb was determined by clipping the cell pellet containing tips of each tube into scintillation vials and counting in a gamma counter. Bound and free counts were determined. The bound counts were plotted against the concentration of the cold competitor mAbs.

[7] = target: T1, human B7-1 (CD80) expressed on the cell …; test: competition binding on CHO/hB7-1 cells: unlabeled competitor against 125I-murine anti-B7-1 tracer, bound cpm
Method: as §3

[8] = target: T1, human B7-1 (CD80) expressed on the cell …; test: competition binding on CHO cells expressing rhB7-1: unlabeled competitor against 125I-humanized 1F1 tracer, bound/free ratio
Method: as §2

[9] = target: T1, human B7-1 (CD80) expressed on the cell …; test: competitive binding against 125I-murine anti-B7-1 on CHO/hB7-1 cells; humanized anti-B7-1 mAb
Method: as §3

[10] = target: T1, human B7-1 (CD80) expressed on the cell …; test: direct binding of 125I-labeled antibody to CHO/hB7-1 cells, nonspecific binding (CHO cells with hB7-2) subtracted
Method: Binding assays were begun by plating CHO/hB7-1 cells onto 96 well tissue culture plates at 10,000 cells/well in complete medium and the plates incubated at 37° C. for two days. Adherent cells were washed gently with assay buffer (PBS containing nonfat dry milk and sodium azide). Murine and humanized anti-B7-1 mAbs labeled with ¹²⁵I were serially diluted in assay buffer and incubated with the cells overnight at 4° C. to allow biding to reach equilibrium. Unbound labeled antibody was removed from the cells by a series of gentle washings with assay buffer and the bound ¹²⁵I-labeled antibody was detected using a ¹²⁵I scintillant and detector system. Non-specific binding was determined for each dilution of labeled antibody in an identical manner as described above except that the target CHO cells expressed hB7-2 which is not bound by either the murine or humanized anti-B7-1 mAbs.
The mean value of triplicate determinations minus the non-specific binding was calculated and fit to a hyperbolic saturation binding curve using Graphpad Prism software. […] Both murine and humanized anti-B7-1 mAbs recognize cell surface expressed human B7-1.

Row | Binder | IC50 of inhibition of CD28+ human T cell proliferation stimulated with PMA and CHO/hB7-1 cells [1] | fold higher binding affinity than the humanized anti-B7-1 mAb [2] | Kd [3] | Ka [4] | binding result [5] | Kd [6] | IC50 (read off the curve) [7] | IC50 (read off the curve) [8] | Kd [9] | EC50 (read off the curve) [10]
1 | B1 | 0.22 nM | 5 fold | 0.56 nM | ~1e+09 M⁻¹ | no binding | ~1 nM | ~1 nM | ~1 nM | – | –
2 | B2 | 0.11 nM | – | 2.8 nM | – | no binding | – | ~2 nM | – | ~1 nM | ~1 nM
